# Test results reported in patent US20040033229A1 (published 2004).
# B1: 225Ac labeled mAb 026 (antibody, V domains shown)
# VH: QVQLVESGGGVVQPGRSLRLSCAASGFTFSNYVMHWVRQAPGKGLEWVAIIWYDGSNKYYADSVKGRFTISRDNSKNTLYLQMNSLRAEDTAVYYCAGGYNWNYEYHYYGMDVWGQGTTVTVSS
# VL: DIQMTQSPSSLSASVGDRVTITCRASQGITNYLAWFQQKPGKAPKSLIYAASSLQSGVPSKFSGSGSGTDFSLTISSLQPEDFATYYCQQYNSYPITFGQGTRLEIK
# modifications: 225Ac-DOTA conjugate, sites not stated; 225Ac-DOTA conjugate, sites not stated ; 225Ac chelated by DOTA and conjugated to the antibody; sites not stated
# Target: prostate specific membrane antigen (PSMA), full-length, on the cell surface (human, UniProt Q04609 1-750)
# Sequence (Q04609 whole entry): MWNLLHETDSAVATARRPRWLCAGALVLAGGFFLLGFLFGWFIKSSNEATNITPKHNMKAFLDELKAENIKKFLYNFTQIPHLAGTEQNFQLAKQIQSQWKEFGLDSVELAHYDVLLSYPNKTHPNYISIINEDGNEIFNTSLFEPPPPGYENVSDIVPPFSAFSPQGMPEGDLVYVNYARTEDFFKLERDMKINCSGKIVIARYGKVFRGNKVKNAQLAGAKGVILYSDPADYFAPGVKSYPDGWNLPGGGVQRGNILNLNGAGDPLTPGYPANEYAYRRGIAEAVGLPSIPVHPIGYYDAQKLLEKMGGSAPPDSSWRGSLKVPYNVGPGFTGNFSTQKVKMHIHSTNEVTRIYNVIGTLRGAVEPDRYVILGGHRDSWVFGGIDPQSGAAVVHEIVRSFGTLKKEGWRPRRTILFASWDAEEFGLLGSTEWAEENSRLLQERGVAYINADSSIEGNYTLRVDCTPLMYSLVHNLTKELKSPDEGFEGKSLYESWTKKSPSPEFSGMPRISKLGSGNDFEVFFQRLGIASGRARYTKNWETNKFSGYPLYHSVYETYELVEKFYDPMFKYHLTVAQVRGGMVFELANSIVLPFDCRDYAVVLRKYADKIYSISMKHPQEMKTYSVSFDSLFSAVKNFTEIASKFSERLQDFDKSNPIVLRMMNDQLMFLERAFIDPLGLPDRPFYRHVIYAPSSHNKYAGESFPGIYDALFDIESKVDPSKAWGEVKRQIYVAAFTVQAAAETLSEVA
# Assay: cell-based or functional assay
binder,measurement,value
B1,"IC50 of cell survival (3H thymidine incorporation), C4-2 cells",0.12 nCi/mL
same,"IC50 of cell survival, C4-2 and LNCaP cells",< 1 nCi/mL
same,"selectivity of killing, C4-2 against PC3",> 50 fold
